One block for each compound: values may come before it. Ends that are not written are not given here.
Assays:
[1] = 30 equivalents of Cysteine; cited from earlier work
[2] = system: AR4-2J xenografted tumour; settings: mouse, in vivo
Experimental: Females Balb/c nude mice weighing 20 g were purchased from Charles River Laboratories (L'Arbresle, France). The mice were kept in a conventional animal facility and had access ad libitum to food and drink. The experimental protocol has been approved by the local ethical committee for animal experimentation.
Mice were implanted subcutaneously with 5-6 millions AR4-2J cells freshly suspended in sterile PBS. […] After 1 h, 4 h or 24 h time period, the mice were sacrificed by ex-sanguination under anaesthesia. Organs of interest, blood and urine were collected and weighted. The radioactivity was measured with a gamma counter.
Two control experiments were also conducted.

[3] = Cysteine challenge of TcO complexes; assay type: physicochemical; settings: pH 7.4, 20 h, 310 K
Experimental: A solution containing 16 μg of lyophilized TcO[UBI 29-41] (SEQ ID NO: 1) was added to 32 μl of Cysteine solution in PBS pH 7.4. Three concentrations of Cysteine solution were used: 100 mM, 15 mM and 1 mM corresponding respectively to a molar ratio Cysteine:Tc-UBI-WT of 333, 53 and 3. The samples were incubated for 20 h at 310 K prior to HPLC and ESI-MS analysis. Similar experiment was performed for TcO[TGRRR] (SEQ ID: NO 22) complex. 13 μg of lyophilized TGRRR(SEQ ID: NO 22)-TcO complex were added to 64 μl of 15 mM Cysteine solution in PBS pH 7.4 corresponding to a TcO[TGRRR] (SEQ ID: NO 22):Cysteine molar ratio of 50. This solution was incubated for 20 h at room temperature prior to HPLC analysis.
To be useful for the in vivo application of the TGRRR sequence (SEQ ID NO: 26) to label peptides or proteins, the TcO[TGRRR] (SEQ ID NO: 27) complex must be stable during 1-3 times the period of ^99mTc. The inventors evaluated the stability of the [TcO]^3+ complexes in the case of the peptide UBI-WT (SEQ ID: NO 1) and TGRRR, (peptide P13; SEQ ID NO: 26). To this end, the inventors performed a Cysteine challenge. 16 μg of the TcO[UBI-WT] was added to 1, 15, and 100 mM solutions of Cysteine at pH 7.4 corresponding respectively to molar ratio of 3, 53 and 333. These samples were incubated for 20 h at 310 K. The mixtures were analyzed by HPLC and LC-MS.

[4] = system: AR4-2J xenografted tumour; assay: Whole body section imaging with β-imager; assay type: in vivo, mice
Experimental: Full Body section analysis: the mice were injected by caudal vein and sacrificed 4 hours later. For imaging, the mice were anesthesied and then immersed in an −80° C. mixture of dry ice and isopentane to prevent CNT tissue redistribution. After blocking the body in mounting medium, tissue sections (20 μm) were made at −20° C. with a slicing microtome (LEICA Microsystems, France). Sections were kept at room temperature for 2 hours in the presence of silica gel to ensure complete drying.
The quantitative determination of the radioactivity in dried tissue sections and imaging were carried out using a β-imager (Biospace Lab, Paris, France).

CHO-SST-2 (mb) = biological target: T1, CHO-SST-2 (mb) (Homo sapiens, UniProt P30874); assay: Binding to somatostatin receptor, CHO-SST-2 membranes
T1 construct: expressed in transfected cells; host or cells: CHO cell membranes (mb)
T1 sequence (P30874 whole entry): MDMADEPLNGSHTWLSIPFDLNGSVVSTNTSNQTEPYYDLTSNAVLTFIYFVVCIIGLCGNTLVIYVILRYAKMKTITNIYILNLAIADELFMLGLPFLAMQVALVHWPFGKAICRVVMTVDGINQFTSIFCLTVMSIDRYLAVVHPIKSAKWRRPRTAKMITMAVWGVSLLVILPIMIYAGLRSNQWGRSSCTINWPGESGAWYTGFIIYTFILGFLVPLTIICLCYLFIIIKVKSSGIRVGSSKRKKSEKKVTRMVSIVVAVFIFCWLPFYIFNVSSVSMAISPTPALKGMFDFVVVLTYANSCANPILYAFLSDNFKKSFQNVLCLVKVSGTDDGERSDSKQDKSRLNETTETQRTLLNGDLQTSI
Experimental: After subtraction of the non-specific binding and normalization, data obtained with [^125I][Tyr^1]-somatostatin were analyzed using the Hill equation to estimate the IC50 values.

Compound: [AGGG]TcO complex: TcO complex of the peptide AGGG (SEQ ID NO: 31), from the literature (also: TcO complex)
stability against Cysteine [1]: completely unstable

Compound: TcO[HTGRRR]: [TcO]3+ complex of the TGRRR peptide (P13) (TGRRR-OH; also: TcO complex)
Tumor/Blood Ratio [2]: 1
Tumor/Muscle Ratio [2]: 2.6
radioactivity in Adrenals [2]: 2.2 ± 4.7 % ID/g
radioactivity in Bile [2]: 6.6 ± 2.4 % ID/g
radioactivity in Blood [2]: 0.3 ± 0.3 % ID/g
radioactivity in Brain [2]: 0.1 ± 0.2 % ID/g
radioactivity in Carcass [2]: 0.2 ± 0.1 % ID/g
radioactivity in Heart [2]: 0.7 ± 0.6 % ID/g
radioactivity in Intestines [2]: 1.3 ± 0.8 % ID/g
radioactivity in Kidneys [2]: 21.9 ± 9.5 % ID/g
radioactivity in Liver [2]: 2.1 ± 0.5 % ID/g
radioactivity in Lungs [2]: 0.6 ± 0.8 % ID/g
radioactivity in Muscle [2]: 0.8 ± 1.23 % ID/g
radioactivity in Pancreas [2]: 0.3 ± 0.6 % ID/g
radioactivity in Spleen [2]: 0.7 ± 0.6 % ID/g
radioactivity in Stomach [2]: 2.6 ± 2.2 % ID/g
radioactivity in Tail [2]: 5.3 ± 4.5 % ID/g
radioactivity in Urine [2]: 8.6 ± 5.5 % ID/g
initial [TcO]3+ complex observed ([3]; 15 mM Cysteine): 57%

Compound: TcO[HTGRRRGG-RC-121]: TcO complex of HTGRRRGG-RC-121
radioactivity uptake in the tumour region, β-imaging of whole body section ([4]; group 1, 4 hours post injection): important uptake of the labelled compound in this region
radioactivity uptake in the tumour region, β-imaging of whole body section ([4]; group 2, 125-fold excess of RC-121, 4 hours post injection): absence of radioactivity uptake

Compound: TGRAKRRMQYNRR (Ac-TGRAKRRMQYNRR-NH2) [SEQ ID NO: 1, N-acetylated, C-amidated tridecamer, residue 29 to 41 of the protein Ubiquicidine]
initial [TcO]3+ complex observed ([3]; 1 mM Cysteine): more than 95%
initial [TcO]3+ complex observed ([3]; 15 mM Cysteine): 69%
initial [TcO]3+ complex observed ([3]; 100 mM Cysteine): 10%

Ki (CHO-SST-2 (mb)): 0.02 nM
Compound: CC(C)[C@@H]1NC(=O)[C@H](CCCCN)NC(=O)[C@@H](Cc2c[nH]c3ccccc23)NC(=O)[C@H](Cc2ccc(O)cc2)NC(=O)[C@@H](NC(=O)[C@@H](Cc2ccccc2)NC(=O)CNC(=O)CNC(=O)[C@H](CCCNC(=N)N)NC(=O)[C@H](CCCNC(=N)N)NC(=O)[C@H](CCCNC(=N)N)NC(=O)CNC(=O)[C@@H](N)[C@@H](C)O)CSSC[C@@H](C(=O)N[C@H](C(N)=O)[C@@H](C)O)NC1=O

From patent publication US9234001B2, “Cysteine-free efficient Technetium (Tc) or Rhenium (Re) chelating peptide tags and their use” (Commissariat a L'Energie Atomique et aux Energies …, priority 2008, dated 2016)
